Drawing on PMC8764538, this text covers binding for three sequences.

This data set concerns T1, LuxT-6xHis (Vibrio harveyi BB120 (ATCC BAA-1116; reclassified Vibrio campbellii BB120)?), ORF:7f3e8717.
T1 sequence: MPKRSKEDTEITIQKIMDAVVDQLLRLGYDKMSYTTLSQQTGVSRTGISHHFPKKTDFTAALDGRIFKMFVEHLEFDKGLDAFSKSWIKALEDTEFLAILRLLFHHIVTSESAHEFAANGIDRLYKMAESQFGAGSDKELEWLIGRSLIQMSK
The data set is described as follows: EMSA. Conditions: EMSA: 20 nM DNA probe, LuxT-6xHis dimer 20-320 nM (1x-16x); buffer, salt, pH and temperature not given (described in cited ref 18). On the technique in general: Mobility shift assays separate free from complexed probe on a gel.

For the sequence “AATCATCAGTTCAATAAAAAAGAGGGCTTCAGCCCTCTTTTTTTATATATTTAATCTTGCCCTCATAATCAGTACGCTGTATTATCAATTACAACCGAACTACGTACTGTTTA (double strand) [PswrZ promoter probe]”, the binding result is given as “binds”. Next, “GTTTGATCTGCTTAATAAATCTGGTTAAAAGTTATTAATTAACTTTAAAAAAATAACCCAAGATACTAGTGTTTTTTCAAATTCAAAGGAGAAGCTCTTGATATGGA (double strand) [PluxC control probe]”: “no binding”. Next, “TGGCATATTTTAAGCTCTTCTCTTTGTAAATCCATCTAACTCACATTTAAATGAGGCCAGAATGAAATCATCCTCAGCATTATGTATTGTATGTCCTTG (double strand) [PluxT promoter probe]”: “binds”.
